Measurements as given in article doi:10.1101/2025.11.17.688760.

Test system: P68135
Test: TIRF microscopy of single actin filaments
Details: other: TIRF microscopy of single actin filaments (depolymerization)

alpha skeletal actin from rabbit muscle
barbed end depolymerization rate (effective off-rate of ADP and ADP.Pi subunits): 3.4 ± 0.7 sub/s (mean ± SD)
